From the DeepSol protein solubility set come the findings set out here.

The nature of the data set: soluble on expression in E. coli; label from the status in PepcDB or PDB records.
On to “MGSDKIHHHHHHCSEELDSQPMESYPEGGEPLDVVCKEYGISDYEDIELLSYYKNNLEQANFSGLREEKLWLASFNVKDKSPIINWTDELPFNRNRKIYKGYGEYEDVTIQQITMLQTMYFNPKEFVASLSYYFGKDYGYLALLFRHDTQTKEVQVKRSEILAGFQYSIINNDCCYSLSGDTLYIAEKGFGYSNVGTLYTSEFISHEEAIYTHRDNKGFFVGRRNFKLGEDLWHIQVPQLNDEPADAKIEVSVEDNSKRVWKYNVNIIHYDGTKKNVTFEVDIDNGTIKGENDYTSLIIGKWKKTSGDAVATHVTYKNDGTFEYTSTEDSSYKEVGKYKIDGNKLYEMYSDEEEWIINDILLLNSMTLSVQELEADGVTPTGQKYSYQRVE”, for which the “soluble on expression in E. coli” value is “not soluble”. The entry for “HKPWRAEYAKSSRSSCKTCKSVINKENFRLGKLVQSTHFDGIMPMWNHASCILKKTKQIKSVDDVEGIESLRWEDQQKIRKYVESGAGSNTSTSTGTSTSS” is “soluble”; for “MAEPLFDMSATGRPRILILGGTTEARQLAERLVSEPHYDTAISLAGRTADPRPQPLPTRTGGFGGAEGLAVFLRERNIALLIDATHPFAARISLNAAAAAKMTGTPLLALRRPAWAAEPGDRWTCVGSVAEAVPALGEAPRRVFLAIGRQEAFHFERAPQHSYVVRSVDPVMPPLDLPDVTAILASGPFAQADETELLERHGIDVIVAKNSGGAATYGKIAAARQLGIEVVMVERHKPADVQSVGDCDEALERIRQWLSPVKDRGV” it is “not soluble”. In the case of “MDVAGLTDCGLIRKSNQDAFYIDEKHQRFFIVADGMGGHAGGEEASRLAVDHIRQYLETHLEDLQHDPVTLLRQAFLAANHAIVEQQRQNSARADMGTTAVVILLDEKGDRAWCAHVGDSRIYRWRKDQLQQITSDHTWIAQAVQLGSLTIEQARQHPWRHVLSQCLGREDLSQIDIQPIDLEPGDRLLLCSDGLTEELTDDVISIYLSEPNVQKAAAALVDAAKTHGGRDNVTVVVISV”, the “soluble on expression in E. coli” value was “soluble”. The entry for “MLNVEPSFAEELRSSGVSLSATYLGSVPVVESINVMVSEMRVQVVSECIQHVAATVGVTAAREINPVVSRPTLHGSMKKPR” is “not soluble”. The entry for “MVDIANEVGASESAIPPLKMLLLEGARQAALEAGLQNNSGILADTTFGQQALNDVTGQGWWIGRPVEMPGSYPLKLEHGDIGSQLVSWPQEHVVKCLVFYHPLDAESVRLEQEALIDEVYRACCQSGHDLLLEVILPRDAADQNEQYYPQIVERFYQLGILPDWWKLPPLSPDRWREISQHIEHYDPECRGILILGLDAPESELKSGFAAAADMPWVKGFAVGRTIFGEPSRQWLGGQLNDEQLIATVKQKYRMLIDYWREYRPAR” is “not soluble”. The entry for “MLMSLSRRELIKKEIFDIEEYVPGRSIEEIASTYGLKPESIIKLGSNENPLGPSPKAVKALIEAAPGANIYPSADAHELREALSKYTGFPVSNIVASGPGMDGLLDGLCRIIIEKGDEVIVPIPTFSYYELPARACGAEPVFIRRNQDFSLNPEKILEAVSPRTKIIFLCSPNNPSGNLLPEADLRKIIENTDALVFVDEAYVEFADRNLAALVNEYDNVAVGRTFSKVFGLAGLRLGYGIMPEWLTKEYLRAATPFSVSLPALRAGLAALSDTEYLNKSINLAREGREYLKEKIPFKVYPSQANFVLVDVSPLKAKKVTESLLKKGIIVRPCDSFREAGDSFIRVTVGTPEQNEKVVRAFEISKSEV” is “not soluble”; for “MEDIIFGKRSNVFDVNPENTVFVLIAGTSEVSTVPGITSAGATPELTRLTPAIDSEIIGEGKCLSSKDPPMTPEGIPTPAIVTKAILSLTNIRYIIVNGGFYAKPKTPFIETGLKPSNNPAVKTAIEDLDAAIHAGEHIGRLLDGVFENIILAESVPGGTTTAYAVLKAIGINAKTSSSMKEDPFSIKEKIAEMSFRRKLEKSPLGAVKEYGDNMMAVSLGISSSVKRSKIIFGGGTQMATVMYLDRLINGMRDRYISTTGWVYYHRTELFSDLGLSDYLAVSAMDFSGMKHPGLRYYQYGHVREGTGMGAAFLLARLMNFEAEAIYKSVDDFYEQFI” it is “not soluble”. On to “MGSDKIHHHHHHMALFEGYERRIDGINTVLKKYGMNSIEDAKKVCDEKGINVYDIVRSIQPICFENACWAYTLGAAIAIKNGCTSASDAAKNIGEGLQAFCIPGSVADDRKVGLGHGNLGAMLLSEDAKCFAFLAGHESFAAAEGAIGIAKSANKVRKEPLRVILNGLGKDAAQIISRINGFTYVQTQFDYYTGELKIVKETAYSKGERAEVRCFGADDVREGVAIMHHEGVDVSITGNSTNPTRFQHPVAGTYKKECFEMGKKYFSVASGGGTGRTLHPDNMAAGPASYGMTDTMGRMHSDAQFAGSSSVPAHVDMMGLIGMGNNPMVGATVAVAVAIEEAMK”, for which the “soluble on expression in E. coli” value is on record as “not soluble”.

Turning to “MSLRTEEEMFQLIMDVAKQEEHIRAVGMVGSRTNVKAPKDSFQDFDIVYIVEPCAEFFETATWIAKFGQPLIMQRPKEMTLFPTEPKTRETFLMLFEDGQRIDLTLCPLAEKDNWHEGDSLAIILLDKDENLPPLPVASDKNYTVTVPDQQQFNDCCNEFWWVSTYVVKGLCRNELFYAVTHLYEYCQQELLRLLSWQAAWQEPEPISVGKQFKYLKNYVTPDTMDQLASLLDFSSKEACWNSLIKTQAFFDVVAQDFAKMAQFTYHLQEAKKVTEYTNSLRLKDLQGKEGHHHHHH”, the “soluble on expression in E. coli” value was “soluble”.

Turning to “MAHHHHHHMYAGFPRLNVTEAQETVDLDFELTNEKGCVKVTEFPVPKVVNLSFPAVCALLYNARTATSSRNIFGSVIGLQLQDTVEVTDVKTNPSIDIEEDDRMTEEERMERVRKERKLLDADKAIFENMYNQENLDTNVIGQFVVSSARFNPFSTRTMRKLQELHRESLPAILLTYDPFRTGLLGRPHIRAYTPTAAYYKYDSLVSTERGYQRRRSLAQYAKESGITKEGVLHEIPVKLEVDAFHKLNLMNVPPTAVGDSFKAIQSMAVSNYIEALLSSIRNNTDQLKQKLDYEGNVKDNGNVPVGQDAETMLLMKHVRDQTDHLDALCDSALLYSSLLRDL”, the “soluble on expression in E. coli” value is listed as “soluble”. In the case of “MSNRNGGGGGGDYQDVIESLRRTQLIFEEDDNNSSDSAPQANHLSRHQTSNSLVEDMVNHSNGNPPPVPPGITQQQCQIGLTPRMSASPPSAVSTISGTAVLGKTMARVQSNPPGSIPHNTTTTAQGIQSVAPHIPIGGGGATDDSSAEILSVFECPVCLEYMLPPYMQCSSGHLVCSNCRPKLQCCPTCRGPTPSVRNLGLEKIANTVRFPCKFSTSGCPLNFHHADKTEHEELCEFRPYCCPCPGASCKWQGGLSDVMEHLKKIHKSITTLQGEDIVFLATDINLPGAVDWVMMQSCFDYNFMLVLEKQEKYDPAQPTQMFYAVVQLIGSKKEADNFVYRLELSASRRRMSWEATPRSIHEGVVVAIQQSDCLAFDSNAAQLFAENGNLGINVTISRIDTPQRRHPNELENSDLEYD”, the “soluble on expression in E. coli” value was “not soluble”.

With “MKKIQTPNAKGEVRIIAGLWRGRKLPVLNSEGLRPTGDRVKETLFNWLMPYIHQSECLDGFAGSGSLGFEALSRQAKKVTFLELDKTVANQLKKNLQTLKCSSEQAEVINQSSLDFLKQPQNQPHFDVVFLDPPFHFNLAEQAISLLCENNWLKPNALIYVETEKDKPLITPENWTLLKEKTTGIVSYRLYQNLEHHHHHH”, the “soluble on expression in E. coli” value is given as “soluble”. The entry for “MGSDKIHHHHHHMDHAIYTAMGGASQSLEKQAITANNLANASTPGFRAQLSALRAVPVNGLTLPTRTLVVASTPGADMTEGVMNYTGRAMDVALPKESWLAVQTANGGEAYTRNGNMEINADGQLTIQGRVVMGDGGPIDIPPQAQISISADGTISALNAGDPPNTIAQLGRLKLVKATGQEVERSDDGLFRLTQQAQQQRGNVLQNDPTVRIMPGVIEGSNVNTVDTMVDMIANARRFEMQMKVISSVDDNAQRANQILAMG” is “not soluble”; for “MTDICMLKTMDSRNTNEAKQEPKTMVWWDINSCPVPDGYDARMVAHSIESELKKAGYPGPLTITAIGYLNTPLMCM” it is “not soluble”. Then “MESESIVYGCIRDWPGDSMERRMRRAANRRVLDSLPGGEAWPFLGREMFSRCEQSGAGLYQTQIIHFGASYQAIEYEWSLWVEQFEALLRRLYWASAVVHLETEVNGSHTFRWESERGFHTPQESDLQVRCAWEREGGRR”, with “not soluble”; and “MPNVKDITRESWILSTFPEWGTWLNEEIEEEVVAEGNFAMWWLGNCGVWIKTPGGANVVMDLWSNRGKSTKKVKDMVRGHQMANMAGVRKLQPNLRAQPMVIDPFAINELDYYLVSHFHSDHIDINTAAAIINNPNLDHVKFVGPYECGEIWKKWGVPEERIIVIKPGESFEFKDIKVTAVESFDRTCLVTLPVDGAEEHDGELAGLAVTDEEMARKAVNYIFETPGGTIYHGADSHFSNYFAKHGKDYKIDVAINNYGDNPVGIQDKMTSIDLLRMAENLRAKVIIPVHYDIWSNFMASTDEILQLWKMRKERLQYDFHPFIWEVGGKYTYPQDKDRIEYHHPRGFDDCFEQESNIQFKALLMAGDPLEHHHHHH”, with “soluble”.

Consider “QDDSRYTKFLTQHHDAKPKGRDDRYCERMMKRRSLTSPCKDVNTFIHGNKSNIKAICGANGSPYRENLRMSKSPFQVTTCKHTGGSPRPPCQYRASAGFRHVVIACENGLPVHFDESFFSL”, for which the “soluble on expression in E. coli” value is listed as “soluble”.

“MEANTSSSGTVTGQRFAERRRSLPPGAELRQRLLKQLKELCDQIGKAYSTLVQKAALVIEPADQAVSLEPDTQRQATCITNLSDEGELWTTVYELNLGVQNLLMFIEDIRLLLLTQAQVPGPSVEENGLKTAGKGGCSPTELEGARFSDRLSSSNTHRFLEQLWDRYTP”: the “soluble on expression in E. coli” value is “soluble”. Take “SFWGWLNAVFNKVDHDRIRDVGPDRAASEWLLRCGAMVRYHGQQRWQKDYNHLPTGPLDKYKIQAIDATDSCIMSIGFDHMEGLQYVEKIRLCKCHYIEDGCLERLSQLENLQKSMLEMEIISCGNVTDKGIIALHHFRNLKYLFLSDLPGVKEKEKIVQAFKTSLPSLELKLDLK”: the “soluble on expression in E. coli” value is “soluble”. In the case of “MEPMRIGPRLSVAAVSHVGRRQNNEDFHRVLPLETPAGLLLLLAVADGMGGLEAGEWASKLAIEALSEAARGYAEHLQSGRPAVGLARVMEKGFLLARRRVEREAERPGRRGMGTTLTAFLYADWLKEGVVGHIGDSRAYRFGPTGVFRLTEDHSWVAERLKEGVLTRTEAERHPYRNVLTRALGLPEARFDLVEVRLAPGEGVLLVTDGLYGHVPEEEWRLGRDLQASLEAMVAEALRRGGDDNVTAVALRVE”, the “soluble on expression in E. coli” value is “soluble”.

As for “MTMKEKKLKIDISGVDPICNKSKGDDFYDVVNRQLSRRSFLKGGLGVAVSSFMLSPLMAGCTSSKGTARSSAGLGFQAIAGNRTDVVDVPVGYRAQPFLPWGTPLVPGAGEFKTDASNSALDQARQVGSHHDGMHFFPIDVKEGGASSKEGLLVMNHEYVDPQILHASFSPNAPRPQQEVLKEMMAHGVSVAHIIRKPDGEWQLVEGSPYNRRITASTPMQMSGPVAGHDKLVTRFSPDGTKTRGTINNCSHGHTPWGTYLTCEENWAGCFMNDDDTHPREHERYGVNRENSRYYWETATPGLDETLRFNASSTGSTAADDYRNEPNHFGWIVEIDPFNAKSTPVKRSMLGRFAHEGIVFAPAVEGEPLVAYSGDDSRFEYIYKFVSAKPYYKATASGELLNEGTLYVAQFNDDGTGRWLPLDIENSEFQAKASEAGVGFHSQADVLLNTRLAADVMGATKMDRPEWGAVHPTTKEVYFSLTNNTRRTEVQTNAVNPRAENAYGHIVRWSEDNQQSAESFHWDIFLMGGEAGTRTPNAEGKDLTLTSNNQFACPDGLWFDHRGTLWIQTDMSGELLSEGSFGNNGMYAANPESGELKRFLVGPVDCEITGVVTTPDGKTMFVNVQHPGDRLAPGKFSLEHHHHHH”, the “soluble on expression in E. coli” value is listed as “soluble”.
